Test results reported in the supplement of paper PMC10567573.

B1: RTP4 (parent)
chain: TYWEHWTSQGQVRMRLFGQRCQKC
B2: C1orf55 (parent)
chain: FTSPDYQQQCHEMAERLEDSVLKG

Variants of: B1
Assay: protein stability index of a GFP-peptide fusion (GPS, HEK-293T) (PSI 1-6); higher = more stable
Conditions: c terminus: a fixed tail appended
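Note: lentivirally expressed fusions sorted by FACS into six bins by GFP to DsRed ratio, PSI derived from sequencing read proportions per bin multiplied by bin number.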

Protein stability index: each site, then its substitutions
Y2: E 2.98; C 2.69; H 1.99; W 1.53; F 1.32; G 3.25; I 1.74; P 2.1; M 2.39; D 1.66; K 2.19; T 2.46; N 2.49; A 2.35
W6: E 1.95; G 1.75; C 2.25; A 2.4; K 1.6; Q 2.65; L 1.61; Y 2.05; P 2.07; R 2.7; D 3.38; M 1.52; F 1.39; V 2.32; N 2.11; S 2.13; T 1.94
H5: E 2.19; A 2.43; Q 2.43; M 1.53; N 1.59; G 1.62; Y 1.58; P 3.28; R 1.38; D 2.07; T 2.12; W 1.16
T7: N 1.76; H 1.96; F 1.21; Q 1.77; K 2.04; S 1.79; P 2.27; D 1.86; C 3.39; A 1.53; L 1.61; R 1.98
W3: P 2.25; F 1.75; A 2.07; Q 2.51; E 1.77; G 1.63; R 1.73; M 2.28; H 3.61; I 1.69; Y 1.54; C 5.05; D 2.88; K 2.96; T 3.21; N 2.98
T1: W 2.35; P 2.27; D 1.82; H 2.48; C 2.67; L 1.88; S 2.18; V 1.86; A 1.19; Q 2.15; E 1.36; Y 2.21; G 2.81
E4: N 1.1; I 1.77; C 1.15; P 1.49; H 1.71; M 2.86; K 3.32; Q 3.01; G 2.45

Variants of: B2
Assay: as above
Conditions: c terminus: a fixed tail appended

Protein stability index: each site, then its substitutions
M13: Q 2.24; K 2.79; A 2.03; R 2.09; P 2.83; Y 1.93; V 1.91; I 1.97; S 2.53; F 1.85; H 2.27; G 2.56; C 1.97; W 2.02; D 2.55; L 2.25; N 2.66; E 2.62; T 2.1
E12: Y 2.35; T 1.47; R 1.87; I 2.98; K 1.32; V 1.88; N 1.7; Q 2.23; P 1.5; L 2.7; S 1.73; M 1.89; W 1.85
E15: Y 1.22; R 2.04; Q 1.67; S 2.04; H 2.34; K 1.59; A 2.8; N 1.36; C 1.96; F 1.78; I 1.86; T 2.62; G 2.25; M 1.8; W 1.11; V 2.42; P 2.33; D 1.82; L 1.57
R16: S 2.21; F 2.29; E 2.45; K 1.93; N 2.52; Y 2.04; D 2.85; I 2.94; A 2.08; T 2.38; Q 2.4; P 2.56; C 2.31; M 2.44; H 2.33; V 2.45; L 1.77; G 2.49; W 1.9
V21: G 2.09; S 2.56; P 2.73; M 1.9; E 2.87; Y 2.06; F 2.01; I 2.55; C 2.12; H 2.41; A 3.08; T 2.65; W 1.68; D 2.34; L 2.17; Q 2.21; K 2.99; N 2.94; R 2.33
L17: A 2.86; E 2.97; W 1.98; C 2.25; D 3.18; I 2.12; Q 2.34; K 1.97; Y 2.22; H 2.52; M 1.92; N 2.23; F 2.01; V 2.35; S 2.47; T 2.9; G 2.54; P 2.66; R 2.72
G24: M 2.44; H 1.52; Y 1.8; V 1.72; E 2.74; F 2.01; A 1.98; T 2.26; W 1.78; K 2.49; D 1.91; C 2.52; I 1.5; R 1.87; L 1.87; S 1.89; N 2.15; P 2; Q 2
D19: T 1.76; E 2.04; H 2.32; L 1.91; Y 1.91; Q 2.04; I 2.86; G 1.77; S 2.87; R 1.65; A 1.83; M 2.08; C 2.04; P 1.98; K 1.35; N 2.37; W 2.23; V 2.03; F 1.79
S20: W 2.08; Y 1.91; G 1.72; D 2.3; P 2.12; R 2.47; F 1.85; L 2.93; V 2.7; H 1.75; A 1.95; C 2.4; Q 2.9; T 2.08; I 2.26; N 1.55; E 2.67; M 2.06; K 1.75
E18: R 2.36; S 2.06; A 1.96; H 1.74; G 2.23; N 1.44; T 1.4; L 1.76; W 1.55; I 1.52; Y 1.79; K 1.74; C 1.99; P 1.78; F 1.65; Q 2.05; M 1.97; V 1.4; D 1.9
L22: A 2.42; G 2.57; C 2.62; K 2.12; W 2.21; N 2.93; R 2.71; D 2.48; P 2.97; E 2.1; M 2.35; Y 2.26; Q 2.79; T 2.22; F 1.9; H 2.05; V 2.75; S 2.76; I 2.36
A14: Q 2.45; L 2.26; I 2.45; N 2.75; F 2.21; W 2.1; V 2; T 2.07; D 2.86; S 2; Y 1.92; K 2.52; G 2.48; H 2.39; E 2.63; C 2.06; P 2.48; M 2.27; R 2.27
K23: A 1.4; M 2.02; P 2.35; T 2.13; R 2.57; D 2.57; V 3.3; F 1.5; Q 2.23; I 2.1; Y 1.99; G 2.38; L 2.37; N 2.6; S 2.24; E 2.35; H 1.89; C 1.79; W 2.39
